# In patent US20060263342A1 (YEDA RESEARCH AND DEVELOPMENT, published 2006):
# Legend:
# [1] = biological target: murine B7.1 on HCT/HHD/B7.1 cells (murine) (UniProt Q00609); experiment: flow cytometry on HCT/HHD/B7.1 cells
# HLA-A2.1 on T2 cells [2] = biological target: T1, HLA-A2.1 on T2 cells (human); experiment: T2 stabilization assay, acid stripped T2 cells with peptide and recombinant β2m, BB7.2 staining, FACS
# T1 construct: MHC class I molecule without the tested peptide
# Method: (§1) T2 cells were acid stripped and incubated with the indicated peptide and recombinant β2m or with β2m alone as a negative control. […] Cells were stained with BB7.2 mAb and analyzed by FACS. The number of positive cells above control level is indicated for each of the peptides.
# HLA-A2.1 on T2 cells [3] = biological target: T1, HLA-A2.1 on T2 cells; experiment: T2 stabilization assay, FACS
# Method: as §1
# Sequence of murine B7.1 on HCT/HHD/B7.1 cells (murine) (Q00609 38-306): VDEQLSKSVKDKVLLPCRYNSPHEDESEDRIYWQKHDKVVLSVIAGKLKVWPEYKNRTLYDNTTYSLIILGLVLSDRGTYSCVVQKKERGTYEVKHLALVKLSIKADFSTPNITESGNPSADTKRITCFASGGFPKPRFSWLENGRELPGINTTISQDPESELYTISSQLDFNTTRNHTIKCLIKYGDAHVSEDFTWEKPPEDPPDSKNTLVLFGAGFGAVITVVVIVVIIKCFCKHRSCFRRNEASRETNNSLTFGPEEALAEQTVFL
molecule,measurement,setting,value
CTLA-4-Ig fusion protein (Fc fusion),percent stained cells,[1],100%
LILGIFMTI (also called 1-8D peptide 3-5) [peptide 3-5 (from human 1-8D interferon induced transmembrane protein 2)],binding result,HLA-A2.1 on T2 cells [2],binds
KCLNIWALI (also called 1-8D peptide 3-7) [peptide 3-7 (from human 1-8D and 1-8U interferon inducible genes)],binding result,HLA-A2.1 on T2 cells [3],binds
